Source: patent publication US20240309109A1
Positions count from the first letter of the chain named. Each block holds one binder with its values, some of them ahead of it.

Molecular target: human CD38 Fc-fusion aa 45-300 (human) (UniProt P28907)
Test: ELISA on CD38 Fc-fusion protein, IgG format

ELISA CD38 Fc-Fusion protein (% Reactivity of MOR03087): 126%
B1: MOR06189 IgG (antibody, part only; not given: Light chain, constant regions, V domains shown, part only)
VH: QVQLVESGGGLVQPGGSLRLSCAASGFTFSSYYMNWVRQAPGKGLEWVSAINMIGNVTNYADSVKGRFTISRDNSKNTLYLQMNSLRAEDTAVYYCARDLPLVYTGFAYWGQGTLVTVSS

ELISA CD38 Fc-Fusion protein (% Reactivity of MOR03087): 125%
B2: MOR06190 IgG (antibody, part only; not given: Light chain, constant regions, V domains shown, part only)
VH: B1 VH with A50Y, M53P, I54N, N56M, V57M
